Test results published in patent US20210340257A1.

Legend:
[1] = biological target: human B7-H3 (CD276), on cells (human) (UniProt Q5ZPR3); assay: parallel-plate flow chamber attachment of microbubbles to MS1 B7-H3+ cells under shear
[2] = biological target: human B7-H3 (CD276), on cells (human) (UniProt Q5ZPR3); assay: flow chamber attachment of microbubbles to MS1hB7-H3 cells under shear
[3] = biological target: mouse B7-H3, on cells (mouse) (UniProt Q8VE98); assay: cell-based or functional assay
Sequence of mouse B7-H3, on cells (mouse) (Q8VE98 29-316): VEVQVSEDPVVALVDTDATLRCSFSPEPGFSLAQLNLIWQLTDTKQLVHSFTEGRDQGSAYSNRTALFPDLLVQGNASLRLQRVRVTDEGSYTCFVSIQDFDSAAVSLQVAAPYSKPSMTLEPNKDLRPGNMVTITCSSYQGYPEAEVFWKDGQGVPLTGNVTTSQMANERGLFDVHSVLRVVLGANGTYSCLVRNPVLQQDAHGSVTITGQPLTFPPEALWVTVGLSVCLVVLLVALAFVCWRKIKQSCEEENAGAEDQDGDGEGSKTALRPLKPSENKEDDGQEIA

[4] = biological target: human B7-H3 (CD276), on cells (human) (UniProt Q5ZPR3); assay: cell-based or functional assay
[5] = biological target: recombinant soluble human B7-H3 ectodomain protein (human) (UniProt Q5ZPR3); assay: flow cytometry; antibody on streptavidin magnetic beads, 3 µM soluble B7-H3, detected with APC anti-B7-H3 antibody
[6] = biological target: recombinant soluble human B7-H3 ectodomain protein (human) (UniProt Q5ZPR3); assay: flow cytometry; unconjugated streptavidin magnetic beads, 3 µM soluble B7-H3, detected with APC anti-B7-H3 antibody

Sequence of human B7-H3 (CD276), on cells (human) (Q5ZPR3 29-534): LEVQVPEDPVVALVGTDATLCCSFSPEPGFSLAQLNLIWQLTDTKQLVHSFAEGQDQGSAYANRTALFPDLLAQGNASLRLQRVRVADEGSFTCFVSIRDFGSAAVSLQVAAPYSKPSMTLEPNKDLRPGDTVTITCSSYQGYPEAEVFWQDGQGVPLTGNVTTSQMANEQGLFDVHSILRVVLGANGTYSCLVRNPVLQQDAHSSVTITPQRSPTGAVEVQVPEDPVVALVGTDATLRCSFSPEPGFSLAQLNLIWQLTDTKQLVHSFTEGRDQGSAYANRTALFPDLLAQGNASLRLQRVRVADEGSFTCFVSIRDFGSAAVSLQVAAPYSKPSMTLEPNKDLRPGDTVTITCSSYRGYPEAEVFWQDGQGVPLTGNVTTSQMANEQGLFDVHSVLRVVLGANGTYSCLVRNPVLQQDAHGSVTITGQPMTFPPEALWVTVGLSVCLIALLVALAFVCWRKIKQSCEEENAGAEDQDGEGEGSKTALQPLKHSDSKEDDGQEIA

Work on “MBNon-targeted (unconjugated streptavidin-coated microbubbles) (from UniProt P22629 37-163)” yielded a microbubbles attached per cell [1] of 0.5 MB/cell and a microbubbles attached per cell [2] of 0.5 MB/cell.
“biotinylated anti-B7-H3 antibody (eBiosciences, clone M3.2D7)” showed a microbubbles attached per cell [1] of 9.79 MB/cell, a US molecular imaging signal, mammary tumors of MMTV-PyMT transgenic mice [3] of 7.2 a.u and an in vivo ultrasound molecular imaging signal of tumors (transgenic mouse model) [3] of 4.82 a.u. The targeted imaging signal in transgenic mice with breast tumors [3] was 6.22 a.u, the US molecular imaging signal, orthotopic MDA-MB-231 tumors co-implanted with MS1hB7-H3 cells [4] was 8.2 a.u and the % binding [5] was 81%. The microbubbles attached per cell [2] was 9.8 MB/cell.
“unconjugated streptavidin magnetic beads (from UniProt P22629 37-163)” was tested, and the % binding [6] was 1%.
